Assay results published in IntAct's records for PubMed 23976881.

B1: Heterogeneous nuclear ribonucleoprotein L (Homo sapiens), P14866-1 (parent)
chain: MSRRLLPRAEKRRRRLEQRQQPDEQRRRSGAMVKMAAAGGGGGGGRYYGGGSEGGRAPKRLKTDNAGDQHGGGGGGGGGAGAAGGGGGGENYDDPHKTPASPVVHIRGLIDGVVEADLVEALQEFGPISYVVVMPKKRQALVEFEDVLGACNAVNYAADNQIYIAGHPAFVNYSTSQKISRPGDSDDSRSVNSVLLFTILNPIYSITTDVLYTICNPCGPVQRIVIFRKNGVQAMVEFDSVQSAQRAKASLNGADIYSGCCTLKIEYAKPTRLNVFKNDQDTWDYTNPNLSGQGDPGSNPNKRQRQPPLLGDHPAEYGGPHGGYHSHYHDEGYGPPPPHYEGRRMGPPVGGHRRGPSRYGPQYGHPPPPPPPPEYGPHADSPVLMVYGLDQSKMNCDRVFNVFCLYGNVEKVKFMKSKPGAAMVEMADGYAVDRAITHLNNNFMFGQKLNVCVSKQPAIMPGQSYGLEDGSCSYKDFSESRNNRFSTPEQAAKNRIQHPSNVLHFFNAPLEVTEENFFEICDELGVKRPSSVKVFSGKSERSSSGLLEWESKSDALETLGFLNHYQMKNPNGPYPYTLKLCFSTAQHAS

Variants of: B1
Details: with roa2_human HNRNPA2B1, P22626
Chain of roa2_human HNRNPA2B1, P22626 (P22626 whole entry): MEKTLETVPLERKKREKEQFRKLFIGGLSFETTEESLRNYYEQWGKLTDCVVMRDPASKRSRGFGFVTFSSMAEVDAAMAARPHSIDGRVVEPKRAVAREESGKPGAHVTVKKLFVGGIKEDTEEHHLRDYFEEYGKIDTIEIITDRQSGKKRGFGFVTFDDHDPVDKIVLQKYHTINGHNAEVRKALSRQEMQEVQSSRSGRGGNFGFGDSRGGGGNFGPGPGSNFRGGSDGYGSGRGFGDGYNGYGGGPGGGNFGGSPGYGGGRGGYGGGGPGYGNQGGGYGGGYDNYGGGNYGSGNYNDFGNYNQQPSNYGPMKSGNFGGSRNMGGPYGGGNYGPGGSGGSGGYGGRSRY

Row | effect of a mutation on the interaction | Variant
1 | increasing interaction strength | MSRRLLPRAEKRRRRLEQRQQPDEQRRRSGAMVKMAAAGGGGGGGRYYGGGSEGGRAPKRLKTDNAGDQHGGGGGGGGGAGAAGGGGGGENYDDPHKTPASPVVHIRGLIDGVVEADLVEALQEFGPISYVVVMPKKRQALVEFEDVLGACNAVNYAADNQIYIAGHPAFVNYSTSQKISRPGDSDDSRSVNSVLLFTILNPIYSITTDVLYTICNPCGPVQRIVIFRKNGVQAMVEFDSVQSAQRAKASLNGADIYSGCCTLKIEYAKPTRLNVFKNDQDTWDYTNPNLSGQGDPGSNPNKRQRQPPLLGDHPAEYGGPHGGYHSHYHDEGYGPPPPHYEGRRMGPPVGGHRRGPSRDGPQYGHPPPPPPPPEYGPHADSPVLMVYGLDQSKMNCDRVFNVFCLYGNVEKVKFMKSKPGAAMVEMADGYAVDRAITHLNNNFMFGQKLNVCVSKQPAIMPGQSYGLEDGSCSYKDFSESRNNRFSTPEQAAKNRIQHPSNVLHFFNAPLEVTEENFFEICDELGVKRPSSVKVFSGKSERSSSGLLEWESKSDALETLGFLNHYQMKNPNGPYPYTLKLCFSTAQHAS [Y359D]
